Measurements as given in US20240368223A1 (KAGOSHIMA UNIVERSITY, published 2024).
Bridges are numbered along the chain shown (N, C = ends). Where no end group is shown, it is not given here. [ ]: non-standard residue; d: D form. hCys = N[C@@H](CCS)C(=O)O

What was measured:
bovine serum albumin = target: T1, bovine serum albumin (bovine, UniProt P02769 25-607); assay: size exclusion chromatography with fluorescence detection at 565 nm
T1 construct: also called BSA
Method: The reaction was terminated by the addition of 10 μL of 1 M Tris-HCl (pH=7.0). Then, size exclusion chromatography was performed using Superdex™ 200 10/30GL 1.0 cm in diameter×30 cm (GE Healthcare Japan Corp.); flow rate: 0.3 ml/min; running buffer: PBS pH 7.4. Assay was conducted using a fluorescence detector RF-10A (Shimadzu Corp.) (excitation light: 541 nm, fluorescence: 565 nm).

human IgG Fc = target: T2, human IgG Fc (human, UniProt P01857-1 108-330 = IgG part); assay: X-ray crystal structure of the Fc/peptide complex
T2 construct: domain: Fc; also called human IgG1 Fc
Method: 70 μL of the crystallizing agent was dispensed thereto as a reservoir solution. The plate was hermetically sealed using PowerSeal CRISTAL VIEW (manufactured by Greiner Bio-One Co., Ltd.) and then left standing for approximately 2 weeks in a thermostat bath of 20° C. to obtain crystals.
The assay was carried out at an X-ray wavelength of 1 angstrom and an angle of oscillation of 1°/frame. Next, the diffraction intensity data was processed at a resolution of 3.0 angstroms using a diffraction intensity data processing program HKL2000 (manufactured by HKL Research Inc.).
A Fc moiety model registered as PDB accession code: 1DN2 in the Protein Data Bank (PDB, URL: http://www.rcsb.org/pdb/) was utilized as a search model for the molecular replacement method.

T1 sequence (P02769 25-607 limits assumed): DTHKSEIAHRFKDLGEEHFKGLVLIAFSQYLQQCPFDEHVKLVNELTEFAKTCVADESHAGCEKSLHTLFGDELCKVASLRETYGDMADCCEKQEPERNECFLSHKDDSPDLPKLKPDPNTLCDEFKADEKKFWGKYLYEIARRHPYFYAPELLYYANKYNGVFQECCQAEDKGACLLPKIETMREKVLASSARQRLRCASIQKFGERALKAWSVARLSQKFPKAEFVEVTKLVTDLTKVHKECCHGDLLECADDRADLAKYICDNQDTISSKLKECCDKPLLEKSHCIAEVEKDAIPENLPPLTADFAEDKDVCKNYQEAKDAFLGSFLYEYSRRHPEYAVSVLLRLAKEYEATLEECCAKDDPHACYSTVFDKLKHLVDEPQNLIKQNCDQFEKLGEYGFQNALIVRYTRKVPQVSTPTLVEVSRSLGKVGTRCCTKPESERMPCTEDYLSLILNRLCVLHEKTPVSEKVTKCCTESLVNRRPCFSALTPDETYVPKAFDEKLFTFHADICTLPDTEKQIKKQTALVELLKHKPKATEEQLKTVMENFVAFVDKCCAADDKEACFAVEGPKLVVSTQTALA

Row | Binder | binding result (bovine serum albumin) | binding result (human IgG Fc)
1 | GPDCAYHXGELVWCTFH (X at position 8 (lysine in Type I(R8K)) modified with DSS; N-terminal amino-PEG4 modified with 5/6 TAMURA succinimidyl ester (fluorescent dye); C-terminal amide; intramolecular S-S bond, also called DSS-crosslinked peptide) [fluorescent (5/6 TAMRA-PEG4) IgG-binding peptide modified with DSS] | no binding | 
2 | GPDCAYHXGELVWCTFH (X at position 8 (lysine in Type I(R8K)) modified with DSG; N-terminal amino-PEG4 modified with 5/6 TAMURA succinimidyl ester (fluorescent dye); C-terminal amide; intramolecular S-S bond, also called DSG-cross-linked peptide) [fluorescent (5/6 TAMRA-PEG4) IgG-binding peptide modified with DSG] | no binding | 
3 | G[hCys]DCAYHRGELVWCT[hCys]H-NH2 (disulfide 4-14, 2-16; N-terminus assumed; SMILES CC(C)C[C@@H]1NC(=O)[C@H](CCC(=O)O)NC(=O)CNC(=O)[C@H](CCCNC(=N)N)NC(=O)[C@H](Cc2c[nH]cn2)NC(=O)[C@H](Cc2ccc(O)cc2)NC(=O)[C@H](C)NC(=O)[C@@H]2CSSC[C@H](NC(=O)[C@H](Cc3c[nH]c4ccccc34)NC(=O)[C@H](C(C)C)NC1=O)C(=O)N[C@@H]([C@@H](C)O)C(=O)N[C@H](C(=O)N[C@@H](Cc1c[nH]cn1)C(N)=O)CCSSCC[C@H](NC(=O)CN)C(=O)N[C@@H](CC(=O)O)C(=O)N2, Peptide put into the crystals with Fc; Residue numbers in the text (Arg8) count on the 17-residue peptide) [cyclic homocysteine peptide G(HC)DCAYHRGELVWCT(HC)H-NH2] |  | binds
